Consider four proteins from ChEMBL document CHEMBL1212722, “Designer enzymes for glycosphingolipid synthesis by directed evolution” (Nat Chem Biol, 2009).

Substrate in series [1]: CC(=O)N[C@H]1[C@H](O[C@@H]2[C@H](O[C@]3(C(=O)O)C[C@H](O)[C@@H](NC(C)=O)[C@H]([C@@H](O)[C@@H](O)CO)O3)[C@@H](O)[C@H](O[C@H]3[C@H](O)[C@@H](O)[C@@H](F)O[C@@H]3CO)O[C@@H]2CO)O[C@H](CO)[C@H](O)[C@@H]1O[C@@H]1O[C@H](CO)[C@H](O)[C@H](O)[C@H]1O
Put plainly: (§1) Ratio of Kcat to Km of Activity of Rhodococcus sp. M777 Endoglycoceramidase 2 P394S mutant.

Substrate in series [2]: CCCCCCCCCCCCC/C=C/[C@@H](O)[C@@H](N)CO
The description is as §1.

Substrate in series [3]: CC(=O)N[C@H]1[C@H](O[C@@H]2[C@H](O[C@]3(C(=O)O)C[C@H](O)[C@@H](NC(C)=O)[C@H]([C@@H](O)[C@@H](O)CO)O3)[C@@H](O)[C@H](O[C@H]3[C@H](O)[C@@H](O)[C@@H](F)O[C@@H]3CO)O[C@@H]2CO)O[C@H](CO)[C@H](O)[C@@H]1O[C@@H]1O[C@H](CO)[C@H](O)[C@H](O)[C@H]1O
Put plainly: (§2) Activity of Rhodococcus sp. M777 Endoglycoceramidase 2 P394S mutant.

Substrate in series [4]: CCCCCCCCCCCCC/C=C/[C@@H](O)[C@@H](N)CO
Described as §2.

Substrate in series [5]: CC(=O)N[C@H]1[C@H](O[C@@H]2[C@H](O[C@]3(C(=O)O)C[C@H](O)[C@@H](NC(C)=O)[C@H]([C@@H](O)[C@@H](O)CO)O3)[C@@H](O)[C@H](O[C@H]3[C@H](O)[C@@H](O)[C@@H](F)O[C@@H]3CO)O[C@@H]2CO)O[C@H](CO)[C@H](O)[C@@H]1O[C@@H]1O[C@H](CO)[C@H](O)[C@H](O)[C@H]1O
Put plainly: (§3) Activity of Rhodococcus sp. M777 Endoglycoceramidase 2 V269I G370R mutant.

Substrate in series [6]: CCCCCCCCCCCCC/C=C/[C@@H](O)[C@@H](N)CO
Described as §3.

Substrate in series [7]: CC(=O)N[C@H]1[C@H](O[C@@H]2[C@H](O[C@]3(C(=O)O)C[C@H](O)[C@@H](NC(C)=O)[C@H]([C@@H](O)[C@@H](O)CO)O3)[C@@H](O)[C@H](O[C@H]3[C@H](O)[C@@H](O)[C@@H](F)O[C@@H]3CO)O[C@@H]2CO)O[C@H](CO)[C@H](O)[C@@H]1O[C@@H]1O[C@H](CO)[C@H](O)[C@H](O)[C@H]1O
Kind of series: (§4) Ratio of Kcat to Km of Activity of Rhodococcus sp. M777 Endoglycoceramidase 2 V269I G370R mutant.

Substrate in series [8]: CCCCCCCCCCCCC/C=C/[C@@H](O)[C@@H](N)CO
The description is as §4.

Substrate in series [9]: CC(=O)N[C@H]1[C@H](O[C@@H]2[C@H](O[C@]3(C(=O)O)C[C@H](O)[C@@H](NC(C)=O)[C@H]([C@@H](O)[C@@H](O)CO)O3)[C@@H](O)[C@H](O[C@H]3[C@H](O)[C@@H](O)[C@@H](F)O[C@@H]3CO)O[C@@H]2CO)O[C@H](CO)[C@H](O)[C@@H]1O[C@@H]1O[C@H](CO)[C@H](O)[C@H](O)[C@H]1O
Kind of series: (§5) Activity of Rhodococcus sp. M777 Endoglycoceramidase 2 D314Y mutant.

Substrate in series [10]: CCCCCCCCCCCCC/C=C/[C@@H](O)[C@@H](N)CO
Described as §5.

Substrate in series [11]: CC(=O)N[C@H]1[C@H](O[C@@H]2[C@H](O[C@]3(C(=O)O)C[C@H](O)[C@@H](NC(C)=O)[C@H]([C@@H](O)[C@@H](O)CO)O3)[C@@H](O)[C@H](O[C@H]3[C@H](O)[C@@H](O)[C@@H](F)O[C@@H]3CO)O[C@@H]2CO)O[C@H](CO)[C@H](O)[C@@H]1O[C@@H]1O[C@H](CO)[C@H](O)[C@H](O)[C@H]1O
Put plainly: (§6) Ratio of Kcat to Km of Activity of Rhodococcus sp. M777 Endoglycoceramidase 2 D314Y mutant.

Substrate in series [12]: CCCCCCCCCCCCC/C=C/[C@@H](O)[C@@H](N)CO
Described as §6.

Substrate in series [13]: CC(=O)N[C@H]1[C@H](O[C@@H]2[C@H](O[C@]3(C(=O)O)C[C@H](O)[C@@H](NC(C)=O)[C@H]([C@@H](O)[C@@H](O)CO)O3)[C@@H](O)[C@H](O[C@H]3[C@H](O)[C@@H](O)[C@@H](F)O[C@@H]3CO)O[C@@H]2CO)O[C@H](CO)[C@H](O)[C@@H]1O[C@@H]1O[C@H](CO)[C@H](O)[C@H](O)[C@H]1O
Kind of series: (§7) Activity of Rhodococcus sp. M777 Endoglycoceramidase 2 V269I mutant.

Substrate in series [14]: CCCCCCCCCCCCC/C=C/[C@@H](O)[C@@H](N)CO
Described as §7.

Substrate in series [15]: CC(=O)N[C@H]1[C@H](O[C@@H]2[C@H](O[C@]3(C(=O)O)C[C@H](O)[C@@H](NC(C)=O)[C@H]([C@@H](O)[C@@H](O)CO)O3)[C@@H](O)[C@H](O[C@H]3[C@H](O)[C@@H](O)[C@@H](F)O[C@@H]3CO)O[C@@H]2CO)O[C@H](CO)[C@H](O)[C@@H]1O[C@@H]1O[C@H](CO)[C@H](O)[C@H](O)[C@H]1O
Put plainly: (§8) Ratio of Kcat to Km of Activity of Rhodococcus sp. M777 Endoglycoceramidase 2 V269I mutant.

Substrate in series [16]: CCCCCCCCCCCCC/C=C/[C@@H](O)[C@@H](N)CO
Described as §8.

B1: Endoglycoceramidase II (Rhodococcus sp), A0ACD6B832 P394S (protein)
chain: MRRTRLVSLIVTGSLVFGGGVAAAQSSLAASGSGSGSGTALTPSYLKDDDGRSLILRGFNTASSAKSAPDGMPQFTEADLAREYADMGTNFVRFLISWRSVEPAPGVYDQQYLDRVEDRVGWYAERGYKVMLDMHQDVYSGAITPEGNSGNGAGAIGNGAPAWATYMDGLPVEPQPRWELYYIQPGVMRAFDNFWNTTGKHPELVEHYAKAWRAVADRFADNDAVVAYDLMNEPFGGSLQGPAFEAGPLAAMYQRTTDAIRQVDQDTWVCVAPQAIGVNQGLPSGLTKIDDPRAGQQRIAYCPHLYPLPLDIGDGHEGLARTLTDVTIDAWRANTAHTARVLGDVPIILGEFGLDTTLPGARDYIERVYGTAREMGAGVSYWSSDPGPWGPYLSDGTQTLLVDTLNKPYPRAVAGTPTEWSSTSDRLQLTIEPDAAITAPTEIYLPEAGFPGDVHVEGADVVGWDRQSRLLTVRTPADSGNVTVTVTPAA
Take B1: the specificity constant (kcat/Km) – broadly, the second-order rate constant that governs catalysis at low substrate concentration – was 319 M⁻¹ s⁻¹ in series [1] and 660 M⁻¹ s⁻¹ in [2]. For the same protein, the results for the Km in [3] and in series [4] were 690 µM and 500 µM, respectively. Also, the figures for the kcat in series [3] and in series [4] were 0.22 s⁻¹ and 0.33 s⁻¹, respectively.

B2: Endoglycoceramidase II (Rhodococcus sp), A0ACD6B832 V269I,G370R (protein)
chain: MRRTRLVSLIVTGSLVFGGGVAAAQSSLAASGSGSGSGTALTPSYLKDDDGRSLILRGFNTASSAKSAPDGMPQFTEADLAREYADMGTNFVRFLISWRSVEPAPGVYDQQYLDRVEDRVGWYAERGYKVMLDMHQDVYSGAITPEGNSGNGAGAIGNGAPAWATYMDGLPVEPQPRWELYYIQPGVMRAFDNFWNTTGKHPELVEHYAKAWRAVADRFADNDAVVAYDLMNEPFGGSLQGPAFEAGPLAAMYQRTTDAIRQVDQDTWICVAPQAIGVNQGLPSGLTKIDDPRAGQQRIAYCPHLYPLPLDIGDGHEGLARTLTDVTIDAWRANTAHTARVLGDVPIILGEFGLDTTLPGARDYIERVYRTAREMGAGVSYWSSDPGPWGPYLPDGTQTLLVDTLNKPYPRAVAGTPTEWSSTSDRLQLTIEPDAAITAPTEIYLPEAGFPGDVHVEGADVVGWDRQSRLLTVRTPADSGNVTVTVTPAA
B2: the values for the Km in [5] and in [6] were 890 µM and 480 µM, respectively. Also, the catalytic constant (kcat) – broadly, the number of substrate molecules converted per active site and unit of time at saturation – in series [5] amounted to 0.17 s⁻¹; in series [6] it was 0.26 s⁻¹. In addition, the results for the kcat/Km in series [7] and in [8] were 191 M⁻¹ s⁻¹ and 542 M⁻¹ s⁻¹, respectively.

B3: Endoglycoceramidase II (Rhodococcus sp), A0ACD6B832 D314Y (protein)
chain: MRRTRLVSLIVTGSLVFGGGVAAAQSSLAASGSGSGSGTALTPSYLKDDDGRSLILRGFNTASSAKSAPDGMPQFTEADLAREYADMGTNFVRFLISWRSVEPAPGVYDQQYLDRVEDRVGWYAERGYKVMLDMHQDVYSGAITPEGNSGNGAGAIGNGAPAWATYMDGLPVEPQPRWELYYIQPGVMRAFDNFWNTTGKHPELVEHYAKAWRAVADRFADNDAVVAYDLMNEPFGGSLQGPAFEAGPLAAMYQRTTDAIRQVDQDTWVCVAPQAIGVNQGLPSGLTKIDDPRAGQQRIAYCPHLYPLPLDIGYGHEGLARTLTDVTIDAWRANTAHTARVLGDVPIILGEFGLDTTLPGARDYIERVYGTAREMGAGVSYWSSDPGPWGPYLPDGTQTLLVDTLNKPYPRAVAGTPTEWSSTSDRLQLTIEPDAAITAPTEIYLPEAGFPGDVHVEGADVVGWDRQSRLLTVRTPADSGNVTVTVTPAA
In the case of B3, the figures for the Km in series [9] and in [10] were 580 µM and 1600 µM, respectively. Further, the values for the kcat in series [9] and in [10] were 0.49 s⁻¹ and 0.7 s⁻¹, respectively. The catalytic efficiency (kcat/Km) in [11] worked out at 845 M⁻¹ s⁻¹; in [12] it was 443 M⁻¹ s⁻¹.

B4: Endoglycoceramidase II (Rhodococcus sp), A0ACD6B832 V269I (protein)
chain: MRRTRLVSLIVTGSLVFGGGVAAAQSSLAASGSGSGSGTALTPSYLKDDDGRSLILRGFNTASSAKSAPDGMPQFTEADLAREYADMGTNFVRFLISWRSVEPAPGVYDQQYLDRVEDRVGWYAERGYKVMLDMHQDVYSGAITPEGNSGNGAGAIGNGAPAWATYMDGLPVEPQPRWELYYIQPGVMRAFDNFWNTTGKHPELVEHYAKAWRAVADRFADNDAVVAYDLMNEPFGGSLQGPAFEAGPLAAMYQRTTDAIRQVDQDTWICVAPQAIGVNQGLPSGLTKIDDPRAGQQRIAYCPHLYPLPLDIGDGHEGLARTLTDVTIDAWRANTAHTARVLGDVPIILGEFGLDTTLPGARDYIERVYGTAREMGAGVSYWSSDPGPWGPYLPDGTQTLLVDTLNKPYPRAVAGTPTEWSSTSDRLQLTIEPDAAITAPTEIYLPEAGFPGDVHVEGADVVGWDRQSRLLTVRTPADSGNVTVTVTPAA
Take B4: the Km – broadly, the concentration of substrate that gives half-maximal velocity – in [13] came to 600 µM; in series [14] it was 810 µM. The kcat in series [13] amounted to 0.13 s⁻¹; in series [14] it was 0.18 s⁻¹. The results for the kcat/Km in [15] and in series [16] were 217 M⁻¹ s⁻¹ and 222 M⁻¹ s⁻¹, respectively.
